Results on three substances are retold here after patent US20100172907A1.

Common to all, as to assay: ELISA
Assay [1] deals with BSA-conjugated Aβ heptapeptide VFFAEDC.
For assay [2], the target named is BSA-conjugated Aβ heptapeptide FFAEDVC.
For assay [3], the target named is BSA-conjugated Aβ heptapeptide AEFRHDC.
For assay [4], the target named is BSA-conjugated Aβ heptapeptide LVFFAEC.

Consider 6E10 (antibody), for which, in assay [1], the OD ratio 18-23/BSA was determined as 1 and the Peptide-ratio 18-23/2-7 was found to be 0.06. Moreover, in assay [2], the OD ratio 19-24/BSA was 1 and the Peptide-ratio 19-24/2-7 stood at 0.06. Moreover, the OD ratio 2-7/BSA in assay [3] is 18. Also, in assay [4], the OD ratio 17-22/BSA worked out at 1 and the Peptide-ratio 17-22/2-7 came out at 0.06.
In the case of AMY-33 (antibody), in assay [1], the OD ratio 18-23/BSA was determined as 1 and the Peptide-ratio 18-23/2-7 was determined as 0.06. Also, in assay [2], the OD ratio 19-24/BSA was determined as 3 and the Peptide-ratio 19-24/2-7 was 0.19. The OD ratio 2-7/BSA in assay [3] turned out to be 16. In assay [4], the OD ratio 17-22/BSA was found to be 2 and the Peptide-ratio 17-22/2-7 is 0.13.
For the substance 4G8 (antibody), in assay [1], the OD ratio 18-23/BSA amounted to 20 and the Peptide-ratio 18-23/2-7 stood at 20. In assay [2], the OD ratio 19-24/BSA turned out to be 1 and the Peptide-ratio 19-24/2-7 stood at 1. Also, the OD ratio 2-7/BSA in assay [3] is 1. Moreover, in assay [4], the OD ratio 17-22/BSA came out at 23 and the Peptide-ratio 17-22/2-7 was found to be 23.
